Measurements reported in patent publication US11155612B2, “vNAR antibody which binds VEGF for use in dogs or cats” (CENTRO DE INVESTIGACIÓN CIENTÍFICA Y DE EDUCACIÓN SUPERIOR …, priority 2017, dated 2021).
Where a chain is given by its changes, count along the chain named. Numbers in names are those of the source.

T1: VEGF165 (Homo sapiens, UniProt P15692)
T1 sequence (P15692 27-191 isoform P15692-4): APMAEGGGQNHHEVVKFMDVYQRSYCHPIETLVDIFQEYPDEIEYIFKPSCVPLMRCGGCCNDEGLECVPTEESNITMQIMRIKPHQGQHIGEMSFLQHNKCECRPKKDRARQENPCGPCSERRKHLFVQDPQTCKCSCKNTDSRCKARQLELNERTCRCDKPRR

B1: P98Y: anti-VEGF vNAR protein, P98Y mutation in CDR3 of parental V13; corresponds to SEQ ID NO:1 (protein)
chain: ASLDQTPRTATRETGESLSINCVLTDTSHILFGTKWLWNNPGSTDWESITIGGRYAESVNNQAKSFSLQIKDLTVEDSGTYYCKAQTIGRRKNLLPRYLVNGIAAMGYSSSDYDGAGTVLTVN
modifications: Artificial sequence against VEGF, with single mutation in the CDR3 region from a parenteral vNAR sequence.
B2: R97A: anti-VEGF vNAR mutant, R97A mutation in CDR3 of parental V13 (protein)
chain: B1 chain with R97A, Y98P

Assays:
VEGF165 = target: T1, VEGF165; assay: ELISA test recognition; assay type: binding; conditions: ELISA plates coated with VEGF165; compared with parental V13
Description: Decreasing concentrations of each vNAR were added to measure the recognition of VEGF compared to V13, which is the parental antibody.
ELISA plates were coated with the same amount of VEGF165; then, the wells were blocked with 3% BSA, several dilutions of clones P98Y and R97A, and the parental sequence (V13) were added.

[1] = test system: human umbilical vein endothelial cells (HUVEC) expressing GFP and normal human dermal fibroblasts (NHDF); assay: Angiogenesis assay (vascular tube formation, HUVEC/NHDF co-culture); assay type: cell-based; conditions: VEGF 4 ng/ml; vNAR at eight concentrations
Description: In the vascular tube formation assay, a co-culture system of human umbilical vein endothelial cells (HUVEC) expressing GFP and normal human dermal fibroblasts (NHDF) was used. For cell seeding on day 0, one cryogenic vial of NHDF cells was thawed and resuspended in 12 ml of complete seeding medium. Then, 100 μl of this solution was added per well of a 96-well plate. The cells were incubated at room temperature for 1 hour. Then, 1 cryogenic vial of HUVECs was thawed and resuspended in 12 ml of complete seeding medium. HUVEC (100 μL per well) were seeded into the same plate as NHDFs. The cells were incubated at room temperature for another hour. The plate was then examined in an IncuCyte ZOOM and scanned using the “FOIL” scan type. After 24 hours, the culture medium was replaced with 150 μl of growth medium.
Forty-eight hours after seeding, the cells were treated with VEGF at 4 ng/ml and the test compounds at eight concentrations.
Serial dilutions of the compounds were prepared using assay media containing VEGF up to the final concentrations in FIG. 3. Then, 150 μl of medium containing the vNARs were added. In untreated wells, media without VEGF were added. For wells without compound, media with VEGF was added. […]
The formation of vessel tubes by fluorescently-labeled HUVECs was measured using live-cell imaging, and the effects of the vNARs on this process were assessed.

[2] = test system: Murine Lewis lung cancer cell lines; assay: VEGF inhibition in vivo, ND-GFP nude mice with Lewis lung cancer footpad implant; conditions: for capillary growth around the tumor (vessel density): 27 μg vNAR i.p. twice per week, 6 doses over 18 days, vs untreated controls; for Normalized tumor weight / reduction of the tumor (weight), statistical significance: after day 18, 27 μg vNAR i.p., 6 doses; for Normalized tumor weight: n=8, PBS = 1.0 (100%); for reduction of the tumor (weight), statistical significance: vs PBS
Description: In vivo tests were conducted at AntiCancer, Inc. (San Diego, Calif., USA) in accordance with its protocols for handling animals approved under Assurance #A3873-1, and also approved by the Bioethics Committee of the Center for Scientific Research and Higher Education of Ensenada, Baja California (CICESE), approval number 2014/03. In order to minimize the suffering of the animals, anesthesia and analgesics were used for all surgical experiments. Animals were anesthetized by subcutaneous injection of a solution of 0.02 ml of ketamine 20 mg/kg, 15.1 mg/kg xylazine, and 0.48 mg/kg of acepromazine maleate. Animals responses during surgery were monitored to ensure adequate depth of anesthesia. The animals were observed daily and humanely sacrificed through CO2 inhalation when they met the following endpoint criteria: severe tumor burden (more than 20 mm in diameter), prostration, significant body weight loss, difficulty breathing, rotational motion, and body temperature drop. Animals were housed in a barrier facility, on a high-efficiency particulate arrestance-filtered rack under standard conditions of light/dark cycles of 12 hours. Animals were fed an autoclaved laboratory rodent diet. Eight nestin-driven GFP (ND-GFP) mice were used [Amoh Y, Yang M, Li L, Reynoso J, Bouvet M, Moossa A R, Katsuoka K, Hoffman R M. Nestin-driven green fluorescent protein transgenic nude mouse for imaging human tumor angiogenesis. Cancer Res. 2005; 65: 5352-5357], individuals from 6 to 10 weeks old were used per group. ND-GFP mice expressed GFP in nascent blood vessels. Murine Lewis lung cancer cell lines, stably transfected with red fluorescent protein (RFP) were used for implantation of foot cancer cells in the plantar pad (5×10^5 cells in 25 μl). The treatment began 3 days after implantation of cancer cells. All vNARs were administered intraperitoneally (i.p.) twice per week for a total of 6 doses over 18 days; each administration contained 27 μg of VNAR in 180 μl of PBS. After day 18, the implanted footpad of the mice in each group was imaged for GFP-expressing blood vessels. The vessel density was calculated as the total length of the blood vessels divided by the observed area. Each individual tumor was collected and, the weighed (g).

Molecule	recognition of VEGF (VEGF165)	inhibition of angiogenesis (tube length and network branching) [1]	capillary growth around the tumor (vessel density) [2]	Normalized tumor weight [2]	reduction of the tumor (weight), statistical significance [2]	reduction of the tumor (weight), statistical significance ([2]; listed as SEQ ID NO:1)
B1	greater recognition of VEGF than the parental	especially potent inhibitors of angiogenesis	reduced capillary growth around the tumor	0.71	statistically significant reduction of the tumor	allows reducing the size of the tumor masses
B2	–	–	comparable with parental v13 VNAR	0.76	–	–
